Results on one protein are retold here after patent publication US20150377889.

This data set has as its target recombinant wild type full-length human galectin-3, His-tagged (unphosphorylated).

recombinant wild type full-length human galectin-3, His-tagged (unphosphorylated), sequence (chain, as listed by the source): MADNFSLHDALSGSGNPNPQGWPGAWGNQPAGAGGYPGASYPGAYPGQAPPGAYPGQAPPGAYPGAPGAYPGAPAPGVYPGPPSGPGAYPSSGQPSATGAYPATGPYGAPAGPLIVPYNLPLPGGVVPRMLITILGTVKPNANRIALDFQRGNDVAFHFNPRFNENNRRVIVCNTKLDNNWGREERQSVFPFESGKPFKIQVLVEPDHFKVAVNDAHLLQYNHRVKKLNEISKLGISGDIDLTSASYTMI

B1: active c-Abl kinase (protein)
chain: PVNSLEKHSWYHGPVSRNAAEYLLSSGINGSFLVRESESSPGQRSISLRYEGRVYHYRINTASDGKLYVSSESRFNTLAELVHHHSTVADGLITTLHYPAPKRNKPTVYGVSPNYDKWEMERTDITMKHKLGGGQYGEVYEGVWKKYSLTVAVKTLKEDTMEVEEFLKEAAVMKEIKHPNLVQLLGVCTREPPFYIITEFMTYGNLLDYLRECNRQEVNAVVLLYMATQISSAMEYLEKKNFIHRDLAARNCLVGENHLVKVADFGLSRLMTGDTYTAHAGAKFPIKWTAPESLAYNKFSIKSDVWAFGVLLWEIATYGMSPYPGIDLSQVYELLEKDYRMERPEGCPEKVYELMRACWQWNPSDRPSFAEIHQAFETMFQESSISDEVEKELGKQGVRGAVSTLLQAPELPTKTRTSRRAAEHRDTTDVPEMPHS
As for B1, the “in vitro tyrosine phosphorylation of galectin-3 (c-Abl kinase assay, pTyr blot)” value is “phosphorylating galectin-3 in vitro with active c-Abl”.
